Drawing on US6410775, this text covers IC50 for 39 molecules.

This assay deals with ACA-6501 aPL antibody. Description: competitive ELISA I50; antibody not given, ACA-6501 serum on CL/β2-GPI assumed (Ex. 4B). For orientation: An ELISA detects its analyte on a solid surface through an enzyme-linked reagent.

Bridge positions count the residues as written; N and C are the ends. Square brackets hold non-standard residues; d marks the D form. Ends that are not written are not given here. Phg = N[C@H](C(=O)O)c1ccccc1; Orn = NCCC[C@H](N)C(=O)O; Aib = CC(C)(N)C(=O)O

CLGVLGKPC [3G3 conformational scan 17 (Pro scan): …] yielded an IC50 of 550 µg/mL.
[dP]CLGVLGKLC (not fully specified (bridges); cysteine pairing not given here) [3G3 D amino acids 1: dP-…] registered an IC50 of 120 µg/mL.

B1: 3G3 conformational scan 25 (alpha Me AA): C-aiB-GVLGKLC (peptide)
peptide: C[Aib]GVLGKLC
modifications: not fully specified (bridges); printed as C-aiB-GVLGKLC; cysteine pairing not given here
B1 registered an IC50 of 370 µg/mL.
Next, CLGVLGKGC [3G3 Gly scan 5: …]: 500 µg/mL.
Next, CLGVLGKLCPG [3G3 truncation 4: …]: 460 µg/mL.

B2: 3G3 conformational scan 24: CLGVLGK-pG-C (peptide)
peptide: CLGVLGK[Phg]C
modifications: not fully specified (bridges); printed as CLGVLGK-pG-C; cysteine pairing not given here
For the molecule B2, the IC50 worked out at 80 µg/mL.

B3: 3G3 conformational scan 23: CLGVLG-pG-LC (peptide)
peptide: CLGVLG[Phg]LC
modifications: not fully specified (bridges); printed as CLGVLG-pG-LC; cysteine pairing not given here
B3 gave a half-maximal inhibitory concentration (IC50) of 230 µg/mL.
For AGPCLGVLGKLCG [3G3 truncation 5: … (as printed)] the value was 450 µg/mL; for CPGVLGKLC [3G3 conformational scan 11 (Pro scan): …], 160 µg/mL.
For CLGPLGKLC [3G3 conformational scan 13 (Pro scan): …] the value was 180 µg/mL; for CLGALGKLC [3G3 Ala scan 3: …], 260 µg/mL.

B4: 3G3 conformational scan 27: CLG-aiB-LGKLC (peptide)
peptide: CLG[Aib]LGKLC
modifications: not fully specified (bridges); printed as CLG-aiB-LGKLC; cysteine pairing not given here
For the molecule B4, the IC50 stood at 110 µg/mL.

B5: 3G3 conformational scan 20: CLG-pG-LGKLC (peptide)
peptide: CLG[Phg]LGKLC
modifications: not fully specified (bridges); printed as CLG-pG-LGKLC; cysteine pairing not given here
Molecule B5 came in with an IC50 of 70 µg/mL.

B6: 3G3 conformational scan 21: CLGV-pG-GKLC (peptide)
peptide: CLGV[Phg]GKLC
modifications: not fully specified (bridges); printed as CLGV-pG-GKLC; cysteine pairing not given here
B6: the IC50 stood at 35 µg/mL.
Next, CL[Phg]VLGKLC (not fully specified (bridges); cysteine pairing not given here) [3G3 conformational scan 19: CL-pG-VLGKLC]: 70 µg/mL.

B7: 3G3 conformational scan 29: CLGVL-aiB-KLC (peptide)
peptide: CLGVL[Aib]KLC
modifications: not fully specified (bridges); printed as CLGVL-aiB-KLC; cysteine pairing not given here
B7 returned a concentration for half-maximal inhibition (IC50) of 110 µg/mL.
Next, PCLGVLGKLCPG [3G3 truncation 3: …]: 420 µg/mL.

B8: 3G3 conformational scan 31: CLGVLGK-aiB-C (peptide)
peptide: CLGVLGK[Aib]C
modifications: not fully specified (bridges); printed as CLGVLGK-aiB-C; cysteine pairing not given here
The molecule B8 yielded an IC50 of more than 470 µg/mL.
CLAVLGKLC [3G3 Ala scan 2: …] showed an IC50 of 170 µg/mL.
For CGGVLGKLC [3G3 Gly scan 1: …] the value was 310 µg/mL.
In turn, CLGVLGPLC [3G3 conformational scan 16 (Pro scan): …] returned an IC50 of 160 µg/mL.
Molecule GPCLGVLGKLCPG [3G3 truncation 2: …] yielded an IC50 of 180 µg/mL. The IC50 values of the last two molecules are within 1.5-fold of each other.

B9: 3G3 conformational scan 26: CL-aiB-VLGKLC (peptide)
peptide: CL[Aib]VLGKLC
modifications: not fully specified (bridges); printed as CL-aiB-VLGKLC; cysteine pairing not given here
Take B9: the concentration for half-maximal inhibition (IC50) was 80 µg/mL. Compared with the last molecule, the IC50 is about 2.2-fold lower.
With CAGVLGKLC [3G3 Ala scan 1: …], the IC50 was 200 µg/mL.
Next, XLGVLGKLX (homocysteine (Hc) at positions 1 and 9; cyclic thioether) [HHTE, LJP 703 (cyclic thioether analog of 3G3, Hc-LGVLGKL-Hc)]: 80 µg/mL; CLGVLG[Orn]LC (not fully specified (bridges); cysteine pairing not given here) [3G3 basic amino acid 2: CLGVLG-Or-LC]: 40 µg/mL.
Next, CLPVLGKLC [3G3 conformational scan 12 (Pro scan): …]: 340 µg/mL; XLGVLGKLC (homocysteine (Hc) at position 1; cyclic thioether) [HCTE, LJP 699 (cyclic thioether analog of 3G3, Hc-LGVLGKL-C)]: 46 µg/mL.
Next, CLGVLPKLC [3G3 conformational scan 15 (Pro scan): …]: 350 µg/mL; CLGVLGKLX (homocysteine (Hc) at position 9; cyclic thioether) [CHTE, LJP 702 (cyclic thioether analog of 3G3, C-LGVLGKL-Hc)]: 92 µg/mL.
Take C[Phg]GVLGKLC (not fully specified (bridges); cysteine pairing not given here) [3G3 conformational scan 18: C-pG-GVLGKLC]: the IC50 was 130 µg/mL.
Next, CLGVLGKAC [3G3 Ala scan 7: …]: 360 µg/mL.
Regarding CLGVLAKLC [3G3 Ala scan 5: … (peptide 925)], the IC50 stood at 40 µg/mL. This IC50 is about 9-fold lower than that of the molecule before.
With CLGVLGRLC [3G3 basic amino acid 1: …], the IC50 was determined as 160 µg/mL. Against the preceding molecule, the IC50 is about 4-fold higher.
In turn, CLGVLGKLC (disulfide 1-9 (inferred)) [LJP 690 …] yielded an IC50 of 10 µg/mL. Against the preceding molecule, the IC50 is about 16-fold lower.
Regarding CVGVLGKLC [3G3 branched aliphatic 2: …], the IC50 is 130 µg/mL.

B10: 3G3 conformational scan 30: CLGVLG-aiB-LC (peptide)
peptide: CLGVLG[Aib]LC
modifications: not fully specified (bridges); printed as CLGVLG-aiB-LC; cysteine pairing not given here
Take B10: the IC50 is 460 µg/mL.
For CIGVLGKLC [3G3 branched aliphatic 1: …] the value was 60 µg/mL; for CLGVLGKLC (cyclic thioether in place of the disulfide) [CCTE, LJP 698 (cyclic thioether analog of 3G3, C-LGVLGKL-C)], 110 µg/mL.

As a reminder, the IC50 is the concentration at which inhibition is half-maximal. Low readings indicate greater potency in that assay, high ones weaker potency in that assay.
